Data: the Immune Epitope Database (IEDB)

Experiments:
HLA-A*02:01 [1] = assay: IEDB peptide-MHC binding, purified MHC/direct/fluorescence; filed as Kd, often an IC50 or EC50 that approximates it; ≥ and ≤ were set here for values at or beyond the usual limits of such assays; settings: source organism: Homo sapiens
HLA-A*03:01 = assay: as above
HLA-A*11:01 [2] = assay: as above
HLA-A*31:01 = assay: as above
HLA-A*69:01 = assay: as above
HLA-B*07:02 = assay: as above; settings: source organism: Homo sapiens
HLA-B*15:01 [3] = assay: as above
HLA-B*27:05 = assay: as above
HLA-B*58:01 = assay: as above
HLA-C*03:03 = assay: as above; settings: source organism: Homo sapiens
HLA-C*06:02 = assay: as above
HLA-A*32:07 = assay: IEDB peptide-MHC binding, purified MHC/competitive/fluorescence; filed as Kd, often an IC50 or EC50 that approximates it; ≥ and ≤ were set here for values at or beyond the usual limits of such assays
HLA-B*15:42 = assay: as above
HLA-B*45:06 = assay: as above
HLA-B*83:01 = assay: as above
HLA-A*02:01 [4] = assay: IEDB peptide-MHC binding, purified MHC/competitive/radioactivity; ≥ and ≤ were set here for values at or beyond the usual limits of such assays
HLA-A*01:01 [5] = assay: IEDB peptide-MHC binding, purified MHC/direct/fluorescence; filed as Kd, often an IC50 or EC50 that approximates it; ≥ and ≤ were set here for values at or beyond the usual limits of such assays; settings: source organism: Mycobacterium tuberculosis
HLA-B*39:01 = assay: as above; settings: source organism: Mycobacterium tuberculosis str. Haarlem
HLA-B*40:01 = assay: as above; settings: source organism: Mycobacterium tuberculosis
HLA-B*46:01 = assay: as above; settings: source organism: Mycobacterium tuberculosis
HLA-B*48:01 = assay: as above; settings: source organism: Mycobacterium tuberculosis
HLA-B*51:01 = assay: as above; settings: source organism: Mycobacterium tuberculosis
HLA-B*57:01 [6] = assay: as above; settings: source organism: Mycobacterium tuberculosis
HLA-A*02:01 [7] = assay: IEDB peptide-MHC binding, purified MHC/competitive/fluorescence; filed as Kd, often an IC50 or EC50 that approximates it; ≥ and ≤ were set here for values at or beyond the usual limits of such assays; settings: source organism: Mycobacterium tuberculosis variant bovis BCG str. Pasteur 1173P2
HLA-A*02:06 = assay: as above
HLA-A*30:01 = assay: as above
HLA-B*08:01 = assay: as above; settings: source organism: Mycobacterium tuberculosis variant bovis BCG str. Pasteur 1173P2
HLA-B*15:17 = assay: as above
HLA-A*11:01 [8] = assay: as above
HLA-C*14:02 [9] = assay: IEDB peptide-MHC binding, purified MHC/direct/fluorescence; filed as Kd, often an IC50 or EC50 that approximates it; ≥ and ≤ were set here for values at or beyond the usual limits of such assays; settings: source organism: Yellow fever virus
HLA-C*15:02 = assay: as above
HLA-A*26:02 [10] = assay: as above; settings: source organism: Dengue virus 2 Thailand/16681/84
HLA-A*01:01 [11] = assay: IEDB peptide-MHC binding, purified MHC/competitive/fluorescence; filed as Kd, often an IC50 or EC50 that approximates it; ≥ and ≤ were set here for values at or beyond the usual limits of such assays; settings: source organism: Human immunodeficiency virus 1
HLA-A*02:03 = assay: as above; settings: source organism: Human immunodeficiency virus 1
HLA-A*26:02 [12] = assay: as above; settings: source organism: Human immunodeficiency virus 1
HLA-B*15:01 [13] = assay: as above; settings: source organism: Human immunodeficiency virus 1
HLA-B*18:01 = assay: as above; settings: source organism: Human immunodeficiency virus 1
HLA-B*57:01 [14] = assay: as above; settings: source organism: Human immunodeficiency virus 1
HLA-A*24:03 = assay: as above; settings: source organism: Bacillus cereus G9241
HLA-C*14:02 [15] = assay: as above; settings: source organism: Bacillus cereus G9241
[16] = source organism: Mycobacterium tuberculosis
[17] = source organism: Mycobacterium tuberculosis variant bovis BCG str. Pasteur 1173P2
[18] = source organism: Yellow fever virus
[19] = source organism: Human immunodeficiency virus 1
[20] = source organism: Bacillus cereus G9241

**Q.** RVMAPRALL was tested. Which Kd (HLA-A*02:01 [1]) did it give?
**A.** 15.6 µM

**Q.** What about the Kd (HLA-A*03:01; source organism: Homo sapiens) of the same sequence?
**A.** 0.775 µM

**Q.** What about the Kd (HLA-A*11:01 [2]; source organism: Homo sapiens) of the same sequence?
**A.** 1 µM

**Q.** And the Kd (HLA-A*31:01; source organism: Homo sapiens)?
**A.** 0.143 µM

**Q.** What about the Kd (HLA-A*69:01; source organism: Homo sapiens) of the same sequence?
**A.** 0.13 µM

**Q.** And the Kd (HLA-B*07:02)?
**A.** 0.232 µM

**Q.** What about the Kd (HLA-B*15:01 [3]; source organism: Homo sapiens) of the same sequence?
**A.** 0.103 µM

**Q.** And the Kd (HLA-B*27:05; source organism: Homo sapiens)?
**A.** 2.17 µM

**Q.** And the Kd (HLA-B*58:01; source organism: Homo sapiens)?
**A.** 0.304 µM

**Q.** What about the Kd (HLA-C*03:03) of the same sequence?
**A.** 0.113 µM

**Q.** And the Kd (HLA-C*06:02; source organism: Homo sapiens)?
**A.** 0.049 µM

**Q.** And the Kd (HLA-A*32:07; source organism: Homo sapiens)?
**A.** 0.0219 µM

**Q.** And the Kd (HLA-B*15:42; source organism: Homo sapiens)?
**A.** ≥ 20 µM

**Q.** What about the Kd (HLA-B*45:06; source organism: Homo sapiens) of the same sequence?
**A.** ≥ 5 µM

**Q.** And the Kd (HLA-B*83:01; source organism: Homo sapiens)?
**A.** 9.34 µM

**Q.** ALSRKVAEL was tested. Which IC50 (HLA-A*02:01 [4]; source organism: Homo sapiens) did it give?
**A.** 0.1 µM

**Q.** How did the IC50 (HLA-A*02:01 [4]; source organism: Homo sapiens) turn out when CISSCNPNP was run?
**A.** ≥ 20 µM

**Q.** Which IC50 (HLA-A*02:01 [4]; source organism: Homo sapiens) does the source give for RTYSGPMNKV here?
**A.** 0.793 µM

**Q.** With RPRLHSISF as the sequence, how does the Kd (HLA-A*01:01 [5]) read?
**A.** 1.31 µM

**Q.** And the Kd (HLA-A*03:01; [16])?
**A.** ≥ 20 µM

**Q.** And the Kd (HLA-A*11:01 [2]; [16])?
**A.** ≥ 20 µM

**Q.** And the Kd (HLA-A*31:01; [16])?
**A.** ≥ 20 µM

**Q.** What about the Kd (HLA-A*69:01; [16]) of the same sequence?
**A.** ≥ 20 µM

**Q.** And the Kd (HLA-B*15:01 [3]; [16])?
**A.** 0.079 µM

**Q.** What about the Kd (HLA-B*27:05; [16]) of the same sequence?
**A.** ≥ 20 µM

**Q.** What about the Kd (HLA-B*39:01) of the same sequence?
**A.** ≥ 20 µM

**Q.** What about the Kd (HLA-B*40:01) of the same sequence?
**A.** ≥ 20 µM

**Q.** And the Kd (HLA-B*46:01)?
**A.** ≥ 20 µM

**Q.** And the Kd (HLA-B*48:01)?
**A.** ≥ 20 µM

**Q.** And the Kd (HLA-B*51:01)?
**A.** ≥ 20 µM

**Q.** What about the Kd (HLA-B*57:01 [6]) of the same sequence?
**A.** ≥ 20 µM

**Q.** What about the Kd (HLA-B*58:01; [16]) of the same sequence?
**A.** ≥ 20 µM

**Q.** What about the Kd (HLA-A*02:01 [7]) of the same sequence?
**A.** ≥ 20 µM

**Q.** What about the Kd (HLA-A*02:06; [17]) of the same sequence?
**A.** ≥ 20 µM

**Q.** And the Kd (HLA-A*30:01; [17])?
**A.** ≥ 20 µM

**Q.** What about the Kd (HLA-B*08:01) of the same sequence?
**A.** 0.0159 µM

**Q.** And the Kd (HLA-B*15:17; [17])?
**A.** ≥ 20 µM

**Q.** And the Kd (HLA-B*15:42; [17])?
**A.** ≥ 5 µM

**Q.** And the Kd (HLA-B*45:06; [17])?
**A.** ≥ 5 µM

**Q.** What about the Kd (HLA-B*83:01; [17]) of the same sequence?
**A.** 0.045 µM

**Q.** With RTMEVFTMY as the sequence, how does the Kd (HLA-A*11:01 [8]; source organism: Yersinia pestis Nepal516) read?
**A.** 0.0033 µM

**Q.** Which Kd (HLA-C*06:02; [18]) does the source give for RWFVRNPFF here?
**A.** ≥ 20 µM

**Q.** What about the Kd (HLA-C*14:02 [9]) of the same sequence?
**A.** 0.278 µM

**Q.** What about the Kd (HLA-C*15:02; [18]) of the same sequence?
**A.** ≥ 20 µM

**Q.** What about the Kd (HLA-B*15:42; [18]) of the same sequence?
**A.** ≥ 5 µM

**Q.** What about the Kd (HLA-B*45:06; [18]) of the same sequence?
**A.** ≥ 5 µM

**Q.** What about the Kd (HLA-B*83:01; [18]) of the same sequence?
**A.** ≥ 5 µM

**Q.** Which Kd (HLA-A*26:02 [10]) does the source give for EYTDYMPSM here?
**A.** 0.026 µM

**Q.** What does the source list for KSLYNTIATLY?
**A.** Kd (HLA-A*01:01 [11]): 2.91 µM; Kd (HLA-A*02:03): ≥ 20 µM; Kd (HLA-A*02:06; [19]): 2.02 µM; Kd (HLA-A*11:01 [8]; [19]): 0.697 µM; Kd (HLA-A*26:02 [12]): 1.06 µM; Kd (HLA-A*30:01; [19]): ≥ 20 µM; Kd (HLA-B*15:01 [13]): ≥ 20 µM; Kd (HLA-B*15:17; [19]): 0.0126 µM; Kd (HLA-B*18:01): 0.346 µM; Kd (HLA-B*57:01 [14]): 0.652 µM

**Q.** For IMDKNIILKA, which IC50 (HLA-A*02:01 [4]; source organism: Influenza A virus (A/Puerto Rico/8/1934(H1N1))) is on record?
**A.** 43 µM

**Q.** Which Kd (HLA-C*06:02; [20]) does the source give for YYKKTFSAL here?
**A.** 1.66 µM

**Q.** What about the Kd (HLA-C*15:02; [20]) of the same sequence?
**A.** ≥ 20 µM

**Q.** And the Kd (HLA-A*24:03)?
**A.** ≤ 0.0001 µM

**Q.** What about the Kd (HLA-A*32:07; [20]) of the same sequence?
**A.** 0.029 µM

**Q.** And the Kd (HLA-B*15:42; [20])?
**A.** ≥ 5 µM

**Q.** And the Kd (HLA-B*45:06; [20])?
**A.** ≥ 5 µM

**Q.** And the Kd (HLA-B*83:01; [20])?
**A.** ≥ 5 µM

**Q.** What about the Kd (HLA-C*14:02 [15]) of the same sequence?
**A.** 0.0004 µM
